{
  "source": "paper PMC12637021",
  "about": "“Talin–tensin3 interactions regulate fibrillar adhesion formation and tensin3 phase separation” (The Journal of Cell Biology, 2025)",
  "key": {"[1]": {"test_system": "active β1 integrin, U2OS TNS3KO cells", "assay": "β1 integrin-positive adhesions, U2OS TNS3KO cells", "assay_type": "cell-based, human", "conditions": "FN-coated, overnight; 9EG7", "experimental": "(§1) Cells were fixed in 4% paraformaldehyde (PFA, Sigma-Aldrich), which had been prewarmed to 37°C for 15 min before being washed three times with PBS. For immunofluorescence staining, cells were permeabilized with 0.5% Triton X-100 (Sigma-Aldrich) at room temperature for 5 min before being washed three times with PBS. Blebbistatin (Tocris Bioscience) was diluted in dimethyl sulfoxide (Sigma-Aldrich) and used at a final concentration of 50 μM. […]\n(§2) Analysis of cell adhesion sites, FN fibrils, and LLPS condensates was performed using FIJI/ImageJ (version 1.54f) software ([Schindelin et al., 2012]). […] Prior to adhesion quantification, the images were background-subtracted using a rolling ball algorithm, followed by thresholding of adhesion sites and Analyse Particles functions in FIJI/ImageJ to quantify adhesions. Adhesion sites with sizes between 0.4 and 10 μm^2 were counted, except for adhesions in blebbistatin-treated cells, which were counted with sizes between 0.2 and 4 μm^2. […]"}, "U2OS TNS3KO cells [2]": {"test_system": "U2OS TNS3KO cells", "assay": "α5 integrin-positive FBs, rescue of TNS3KO cells", "assay_type": "cell-based, human", "conditions": "FN-coated, overnight; SNAKA51 antibody", "experimental": "as §1, §2"}, "U2OS TNS3KO cells [3]": {"test_system": "U2OS TNS3KO cells", "assay": "adhesion stability under blebbistatin, U2OS TNS3KO cells", "assay_type": "cell-based, human", "conditions": "blebbistatin 50 µM", "experimental": "(§3) Cells were fixed in 4% paraformaldehyde (PFA, Sigma-Aldrich), which had been prewarmed to 37°C for 15 min before being washed three times with PBS. For immunofluorescence staining, cells were permeabilized with 0.5% Triton X-100 (Sigma-Aldrich) at room temperature for 5 min before being washed three times with PBS. Blebbistatin (Tocris Bioscience) was diluted in dimethyl sulfoxide (Sigma-Aldrich) and used at a final concentration of 50 μM. The following primary antibodies were diluted in 1% bovine serum albumin (BSA, Sigma-Aldrich): mouse anti-α5 integrin (SNAKA51, 1:100, NBP2-50146; Novus Biologicals), rat anti-β1 integrin (9EG7, 1:200; 553715; BD Biosciences), mouse anti-FN (IST-9, 1:100, ab6328; Abcam), rabbit anti-tensin3 (1:200, HPA055338; Atlas), mouse anti-EEA1 (1:500, 68065-1-IG; Proteintech), mouse anti-LAMP1 (1:200, ab320851; Abcam), mouse anti-paxillin (349, 1:400, mab3060; Sigma-Aldrich), rabbit anti-talin1 (1:200, 82856-4-RR; Proteintech), mouse anti-vinculin (hVin1, 1:500, V9264; Sigma-Aldrich), rabbit anti-KANK2 (1:100, HPA015643; Sigma-Aldrich), rabbit anti-kindlin2 (1:100, 11453-1-AP; Proteintech), rabbit anti-GIT1 (1:200, 26247-1-AP; Proteintech), mouse anti-phosphotyrosine (4G10, 1:200, 05-321X; Sigma-Aldrich), rabbit anti-G3BP1 (1:600, 13057-2-AP; Proteintech), rabbit anti-TDP43 (1:400, 10782-2-AP; Proteintech), and rabbit anti-GIGYF1 (1:400, ab121784; Abcam). […]\nas §2"}, "NIH3T3 cells [4]": {"test_system": "NIH3T3 cells", "assay": "tensin3 condensate formation, NIH3T3 cells", "assay_type": "cell-based, mouse", "conditions": "n = 181 cells (WT), 168 cells (L702E)", "experimental": "(§4) To establish a correlation between tensin3 expression and condensation formation, a maximum intensity Z-projection was performed on Z-stack images of NIH3T3 cells (step depth 0.2 μm). The integrated fluorescence intensity was measured by normalizing the mean pixel intensity of each cell to the average of all values in cells expressing mCh-TNS3. To measure the condensate coverage in NIH3T3 cells, the images were background-subtracted (rolling ball) and then thresholded. This was followed by the Analyse Particles function in FIJI/ImageJ to select round condensate structures (circularity 0.7–1.0) ([Bussi et al., 2023]; [Dumelie et al., 2024]) with a size larger than 0.1 μm^2. The same settings were applied to quantify the number of condensates in NIH3T3 and HFF cells.\nThe percentage of NIH3T3 cells transfected with mCh-TNS3 that form phase-separated condensates was quantified manually in images (610 × 499 μm) acquired with a 20× objective. To quantify the mean radius (R) of the condensates, the area covered by the condensates was divided by the number of condensates for each cell to obtain the mean size (A) of the condensates, followed by the formula of R = √(A/3.14)."}, "β1 integrin, TLNKO cells": {"test_system": "β1 integrin, TLNKO cells", "assay": "β1 integrin activation by flow cytometry, TLNKO cells", "assay_type": "cell-based", "experimental": "To measure the level of β1 integrin activation, TLNKO cells were transfected in a 6-well plate for flow cytometry analysis. Cells were collected, washed, and resuspended in ice-cold staining buffer (1% BSA in PBS) before incubation with 9EG7 antibody (diluted 1:200 in staining buffer) for 1 h on ice. The cells were then washed three times with staining buffer. Alexa Fluor Plus 647 goat anti-rat (1:500 dilution in staining buffer, Invitrogen) secondary antibody was used to incubate the cells for 45 min on ice, before being washed twice with staining buffer and once with PBS. The cells were then fixed with 4% PFA for 15 min before a final wash with PBS. Flow cytometry analysis was performed using a Fortessa system (BD Biosciences) and FlowJo software."}, "[5]": {"test_system": "active β1 integrin, TLNKO cells", "assay": "9EG7-positive (active β1 integrin) adhesions, TLNKO cells", "assay_type": "cell-based", "conditions": "co-expressed with GFP-TLN1, vs talin1 and vector control", "experimental": "as §1, §2"}, "NIH3T3 cells [6]": {"test_system": "NIH3T3 cells", "assay": "client protein recruitment to tensin3 condensates", "assay_type": "cell-based, mouse", "conditions": "co-expressed or endogenous", "from_the_text": "Since the observed tensin3 condensates were derived from adhesion sites in a talin-regulated mechanosensitive manner, we wondered whether these condensates contain other adhesion components or signaling molecules. To address this question, we examined a selection of cell–matrix adhesion proteins that have been reported by others to be present in LLPS condensates. These proteins include LIMD1 ([Wang et al., 2021]), kindlin2 ([Hsu et al., 2023]), talin ([Hsu et al., 2023]; [Litschel et al., 2024]), KANK ([Guo et al., 2023]), tensin1 ([Lee et al., 2023]), vinculin ([Litschel et al., 2024]), and GIT1 ([Zhu et al., 2020]). We added the actin regulatory RhoGAP DLC1 to this selection, as it is known to bind tensin ([Liao et al., 2006]; [Shih et al., 2015]), and the RNA regulatory protein GIGYF1, which we had previously identified alongside many of the aforementioned proteins in tensin BioID datasets ([Atherton et al., 2022]). We also added stress granule components G3BP1 ([Tourrière et al., […]]) and TDP-43 ([Colombrita et al., 2009]). These proteins were either co-expressed as fluorescently tagged proteins (Fig. S4 I) or, where antibodies were available, probed endogenously in cells that formed GFP-TNS3 condensates (Fig. 8 A).\nas §3"}, "NIH3T3 cells [7]": {"test_system": "NIH3T3 cells", "assay": "condensates on soft vs stiff PDMS, NIH3T3 cells", "assay_type": "cell-based, mouse", "conditions": "1.5 kPa vs 28 kPa FN-coated PDMS, overnight", "experimental": "Imaging dishes equipped with 40 µm-thick PDMS substrates (1.5 and 28 kPa) were purchased from ibidi. PDMS dishes were coated with 30 μg/ml FN for 1 h, followed by three washes with PBS. Dishes were incubated with DMEM for 10 min to equilibrate before cells were plated and incubated overnight at 37°C.\nas §4"}, "NIH3T3 cells [8]": {"test_system": "NIH3T3 cells", "assay": "adhesion stability under blebbistatin, NIH3T3 cells", "assay_type": "cell-based, mouse", "conditions": "blebbistatin 50 µM, 60 min; n = 64 (WT), 49 (L702E), 62 (ΔPTB), 71 (Cterm) cells", "experimental": "as §1, §2"}, "TLNKO cells": {"test_system": "TLNKO cells", "assay": "cell spreading of TLNKO cells", "assay_type": "cell-based", "conditions": "tensin3 expressed alone in TLNKO cells", "experimental": "as §3"}},
  "note": "“Also recorded” adds a separate entry of the source.",
  "data": [
    {"molecule": "TNS3-WT: wild-type tensin3 (Homo sapiens), N-terminally labeled with GFP or mCherry, expressed in cells (protein, UniProt Q68CZ2 1-1445, looked up, full-length N-terminal GFP or mCherry tag, wild-type tensin3 (Homo sapiens), N-terminally labeled with GFP or mCherry, expressed in cells) MEEGHGLDLTYITERIIAVSFPAGCSEESYLHNLQEVTRMLKSKHGDNYLVLNLSEKRYDLTKLNPKIMDVGWPELHAPPLDKMCTICKAQESWLNSNLQHVVVIHCRGGKGRIGVVISSYMHFTNVSASADQALDRFAMKKFYDDKVSALMQPSQKRYVQFLSGLLSGSVKMNASPLFLHFVILHGTPNFDTGGVCRPFLKLYQAMQPVYTSGIYNVGPENPSRICIVIEPAQLLKGDVMVKCYHKKYRSATRDVIFRLQFHTGAVQGYGLVFGKEDLDNASKDDRFPDYGKVELVFSATPEKIQGSEHLYNDHGVIVDYNTTDPLIRWDSYENLSADGEVLHTQGPVDGSLYAKVRKKSSSDPGIPGGPQAIPATNSPDHSDHTLSVSSDSGHSTASARTDKTEERLAPGTRRGLSAQEKAELDQLLSGFGLEDPGSSLKEMTDARSKYSGTRHVVPAQVHVNGDAALKDRETDILDDEMPHHDLHSVDSLGTLSSSEGPQSAHLGPFTCHKSSQNSLLSDGFGSNVGEDPQGTLVPDLGLGMDGPYERERTFGSREPKQPQPLLRKPSVSAQMQAYGQSSYSTQTWVRQQQMVVAHQYSFAPDGEARLVSRCPADNPGLVQAQPRVPLTPTRGTSSRVAVQRGVGSGPHPPDTQQPSPSKAFKPRFPGDQVVNGAGPELSTGPSPGSPTLDIDQSIEQLNRLILELDPTFEPIPTHMNALGSQANGSVSPDSVGGGLRASSRLPDTGEGPSRATGRQGSSAEQPLGGRLRKLSLGQYDNDAGGQLPFSKCAWGKAGVDYAPNLPPFPSPADVKETMTPGYPQDLDIIDGRILSSKESMCSTPAFPVSPETPYVKTALRHPPFSPPEPPLSSPASQHKGGREPRSCPETLTHAVGMSESPIGPKSTMLRADASSTPSFQQAFASSCTISSNGPGQRRESSSSAERQWVESSPKPMVSLLGSGRPTGSPLSAEFSGTRKDSPVLSCFPPSELQAPFHSHELSLAEPPDSLAPPSSQAFLGFGTAPVGSGLPPEEDLGALLANSHGASPTPSIPLTATGAADNGFLSHNFLTVAPGHSSHHSPGLQGQGVTLPGQPPLPEKKRASEGDRSLGSVSPSSSGFSSPHSGSTISIPFPNVLPDFSKASEAASPLPDSPGDKLVIVKFVQDTSKFWYKADISREQAIAMLKDKEPGSFIVRDSHSFRGAYGLAMKVATPPPSVLQLNKKAGDLANELVRHFLIECTPKGVRLKGCSNEPYFGSLTALVCQHSITPLALPCKLLIPERDPLEEIAESSPQTAANSAAELLKQGAACNVWYLNSVEMESLTGHQAIQKALSITLVQEPPPVSTVVHFKVSAQGITLTDNQRKLFFRRHYPVNSVIFCALDPQDRKWIKDGPSSKVFGFVARKQGSATDNVCHLFAEHDPEQPASAIVNFVSKVMIGSPKKV", "values": [
      {"measurement": "rescue of adhesion formation", "setting": "[1]", "result": "fully rescued adhesion formation"},
      {"measurement": "α5 integrin-positive adhesions", "setting": "U2OS TNS3KO cells [2]", "result": "α5 integrin-positive adhesions in the peripheral and central areas of the cells"},
      {"measurement": "subcellular localization of construct under blebbistatin", "setting": "U2OS TNS3KO cells [3]", "result": "remained in adhesion structures"},
      {"measurement": "adhesion stability under actomyosin inhibition", "setting": "U2OS TNS3KO cells [3]; 60 min", "result": "remained present despite actomyosin inhibition"},
      {"measurement": "Spearman's r, expression level vs condensate coverage", "setting": "NIH3T3 cells [4]", "result": 0.8773},
      {"measurement": "integrin activation, flow cytometry", "setting": "β1 integrin, TLNKO cells; co-expressed with GFP-TLN1, vs mCh-vector, triplicate", "result": "increased integrin activation"},
      {"measurement": "rescue of integrin activation", "setting": "β1 integrin, TLNKO cells; tensin3 expressed alone in TLNKO cells, 9EG7", "result": "did not rescue cell spreading (Fig. S3 A) or integrin activation"},
      {"measurement": "fold change in 9EG7-positive adhesion sites", "setting": "[5]", "result": "fivefold increase in adhesion sites"},
      {"measurement": "proteins detected in condensates", "setting": "NIH3T3 cells [6]", "result": "talin1 and talin2, vinculin, tensin1, and LIMD1, together with the microtubule-targeting protein KANK1 and KANK2, and DLC1 and GIGYF1"},
      {"measurement": "proteins absent from condensates", "setting": "NIH3T3 cells [6]; listed as GFP-TNS3", "result": "kindlin2 and GIT1, which regulate membrane protrusion ([Böttcher et al., 2017]; [Manabe et al., 2002]), were absent; also recorded: negative for G3BP1, TDP-43 (Fig. S4 J), or tyrosine phosphorylation"},
      {"measurement": "condensates on soft vs stiff substrate", "setting": "NIH3T3 cells [7]", "result": "significant twofold increase"},
      {"measurement": "construct-positive adhesions after blebbistatin", "setting": "NIH3T3 cells [8]", "result": "largely remain after blebbistatin treatment"},
      {"measurement": "rescue of cell spreading", "setting": "TLNKO cells", "result": "did not rescue cell spreading"}
    ]}
  ]
}
